Data: patent US20190270826A1 (Janssen / Centocor, published 2019)

How the values were obtained:
[1] = target: T1, human IL1RAP on cells (endogenous) (human, UniProt Q9NPH3 21-570); experiment: cell-based or functional assay
T1 sequence (looked up): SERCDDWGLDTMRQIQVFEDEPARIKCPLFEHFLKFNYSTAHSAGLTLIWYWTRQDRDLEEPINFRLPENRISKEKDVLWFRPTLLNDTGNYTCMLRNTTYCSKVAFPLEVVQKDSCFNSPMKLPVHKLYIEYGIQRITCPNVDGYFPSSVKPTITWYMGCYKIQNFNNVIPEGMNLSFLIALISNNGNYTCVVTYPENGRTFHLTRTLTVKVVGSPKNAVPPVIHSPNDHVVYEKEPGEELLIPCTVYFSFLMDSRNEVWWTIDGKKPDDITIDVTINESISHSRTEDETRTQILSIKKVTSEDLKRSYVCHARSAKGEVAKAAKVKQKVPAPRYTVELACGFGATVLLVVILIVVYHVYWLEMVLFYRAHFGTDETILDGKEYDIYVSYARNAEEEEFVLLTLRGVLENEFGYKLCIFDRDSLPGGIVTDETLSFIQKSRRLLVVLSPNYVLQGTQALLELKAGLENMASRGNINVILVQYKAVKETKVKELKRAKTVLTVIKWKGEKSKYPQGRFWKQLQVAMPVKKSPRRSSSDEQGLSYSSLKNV

[2] = target: T2, rat IL1RAP ECD displayed on HEK-293F cells (pDisplay) (rat, UniProt Q63621 21-367); experiment: MSD cell binding, HEK-293F Rat clone 1 cells displaying rat IL1RAP ECD
T2 sequence: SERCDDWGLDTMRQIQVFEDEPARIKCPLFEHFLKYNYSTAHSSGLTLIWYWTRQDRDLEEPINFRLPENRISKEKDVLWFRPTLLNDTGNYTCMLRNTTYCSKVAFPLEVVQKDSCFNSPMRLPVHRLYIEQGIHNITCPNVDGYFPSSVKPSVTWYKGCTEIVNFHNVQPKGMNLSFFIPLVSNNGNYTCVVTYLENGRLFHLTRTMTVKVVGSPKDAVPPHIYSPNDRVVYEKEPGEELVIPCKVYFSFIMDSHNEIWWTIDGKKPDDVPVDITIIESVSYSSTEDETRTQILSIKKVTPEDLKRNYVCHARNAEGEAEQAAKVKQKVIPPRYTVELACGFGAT
Method: (§1) Cells were immobilized and IL1RAP antibody samples were assayed in triplicate. Briefly, expression supernatants of purified IL1RAP antibodies were normalized to 10 μg/mL. 5000 cells per well were plated into a 384 well plate (MA6000, cat. L21XB, MSD) and allowed to adhere for 2 hr. Cells were then blocked with 20% FBS in PBS (Gibco) for 15 mins. Antibody supernatants were then added and left at RT for 1 hr. Cells were washed 3 times with PBS and a ruthenium labeled secondary antibody (Mesoscale Discovery) was then added at 2 μg/mL and incubated for 1 hour at room temperature. A further washing step was then applied and 35 μL per well of 2×MSD Read buffer T (surfactant free) was then added and incubated for 5-30 minutes for detection. Plates were then read using Sector Imager 2400 (MSD). Data was normalized to controls and graphed using GraphPad Prism Version 5. A positive binder was determined to be a hit with a signal 3× greater than parental cell line background.
(§2) The MSD cell binding assay described in Example 4 was used to assess IL1RAP binding.

[3] = target: T3, cyno IL1RAP ECD displayed on HEK-293F cells (pDisplay) (cynomolgus monkey, UniProt P59822 21-367 (rhesus entry)); experiment: MSD cell binding, HEK-293F Cyno (clone CB8) cells displaying cyno IL1RAP ECD
T3 sequence: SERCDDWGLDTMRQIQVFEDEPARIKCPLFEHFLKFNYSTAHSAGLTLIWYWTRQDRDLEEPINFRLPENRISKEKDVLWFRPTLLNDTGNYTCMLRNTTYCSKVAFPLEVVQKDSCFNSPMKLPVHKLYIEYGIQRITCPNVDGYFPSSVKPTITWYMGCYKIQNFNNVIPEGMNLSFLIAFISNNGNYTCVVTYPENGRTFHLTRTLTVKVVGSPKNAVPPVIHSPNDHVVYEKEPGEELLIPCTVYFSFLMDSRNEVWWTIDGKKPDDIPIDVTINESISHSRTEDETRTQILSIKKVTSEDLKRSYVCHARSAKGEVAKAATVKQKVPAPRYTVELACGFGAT
Method: as §1, §2

human FcRn = target: T4, human FcRn (human, UniProt P55899 24-297; P61769 21-119, limits assumed); experiment: AlphaScreen competition, human FcRn (n=1); displaced: biotinylated control mAb B21M WT IgG1 (m27); pH 6.0
T4 construct: GST-tagged
Text: (§3) Measurements were made using an AlphaScreen™ assay (Amplified Luminescent Proximity Homogeneous Assay (ALPHA), PerkinElmer, Wellesley, Mass.), a bead-based luminescent proximity assay. Laser excitation of a donor bead excites oxygen, which if sufficiently close to the acceptor bead generates a cascade of chemiluminescent events, ultimately leading to fluorescence emission at 520-620 nm.

human FcγRIIb = target: T5, human FcγRIIb (human, UniProt P31994 43-217, limits assumed); experiment: AlphaScreen competition, human FcγRIIb (n=1); displaced: biotinylated control mAb B21M hIgG1 WT; pH 7.2
T5 construct: GST-tagged
T5 sequence (looked up): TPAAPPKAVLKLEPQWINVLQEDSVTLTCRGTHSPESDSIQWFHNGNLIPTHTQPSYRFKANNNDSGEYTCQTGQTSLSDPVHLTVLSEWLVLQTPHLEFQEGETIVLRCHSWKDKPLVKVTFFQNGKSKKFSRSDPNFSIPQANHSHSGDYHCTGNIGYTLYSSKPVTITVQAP
Text: as §3

B1: IC3B19 (bispecific antibody, human IgG4 S228P, kappa, lambda, F234A L235A)
heavy 1: EVQLVESGGGLVQPGGSLRLSCAASGFTFNTYAMNWVRQAPGKGLEWVARIRSKYNNYATYYAASVKGRFTISRDDSKNSLYLQMNSLKTEDTAVYYCARHGNFGNSYVSWFAYWGQGTLVTVSSASTKGPSVFPLAPCSRSTSESTAALGCLVKDYFPEPVTVSWNSGALTSGVHTFPAVLQSSGLYSLSSVVTVPSSSLGTKTYTCNVDHKPSNTKVDKRVESKYGPPCPPCPAPEAAGGPSVFLFPPKPKDTLMISRTPEVTCVVVDVSQEDPEVQFNWYVDGVEVHNAKTKPREEQFNSTYRVVSVLTVLHQDWLNGKEYKCKVSNKGLPSSIEKTISKAKGQPREPQVYTLPPSQEEMTKNQVSLTCLVKGFYPSDIAVEWESNGQPENNYKTTPPVLDSDGSFLLYSKLTVDKSRWQEGNVFSCSVMHEALHNHYTQKSLSLSLGK
light 1: QTVVTQEPSLTVSPGGTVTLTCRSSTGAVTTSNYANWVQQKPGQAPRGLIGGTNKRAPGTPARFSGSLLGGKAALTLSGVQPEDEAEYYCALWYSNLWVFGGGTKLTVLGQPKAAPSVTLFPPSSEELQANKATLVCLISDFYPGAVTVAWKADSSPVKAGVETTTPSKQSNNKYAASSYLSLTPEQWKSHRSYSCQVTHEGSTVEKTVAPTECS
heavy 2: not shown
light 2: DIQLTQSPSFLSASVGDRVTITCRASQGISSYLAWYQQKPGKAPKLLIYAASTLQSGVPSRFSGSGSGTEFTLTISSLQPEDFATYYCQQVNSYPLTFGGGTKVEIKRTVAAPSVFIFPPSDEQLKSGTASVVCLLNNFYPREAKVQWKVDNALQSGNSQESVTEQDSKDSTYSLSSTLTLSKADYEKHKVYACEVTHQGLSSPVTKSFNRGEC
notes: IgG4-PAA, Fab arm exchange; also called IAPB57 x CD3B219; IL1RAP x CD3
Average EC50, SKNO-1 cytotoxicity in whole blood, 24 hour [1]: 1.82 nM | Average EC50, SKNO-1 cytotoxicity in whole blood, 48 hour [1]: 1.4 nM | EC50, SKNO-1 cytotoxicity in whole blood, donor 00201, 24 hour [1]: 3.58 nM | EC50, SKNO-1 cytotoxicity in whole blood, donor 00201, 48 hour [1]: 0.703 nM | EC50, SKNO-1 cytotoxicity in whole blood, donor 00263, 24 hour [1]: 1.5 nM | EC50, SKNO-1 cytotoxicity in whole blood, donor 00263, 48 hour [1]: 0.768 nM | EC50, SKNO-1 cytotoxicity in whole blood, donor 27050, 24 hour [1]: 1.38 nM | EC50, SKNO-1 cytotoxicity in whole blood, donor 27050, 48 hour [1]: 3.36 nM | EC50, SKNO-1 cytotoxicity in whole blood, donor 27060, 24 hour [1]: 1.88 nM | EC50, SKNO-1 cytotoxicity in whole blood, donor 27060, 48 hour [1]: 1.3 nM | EC50, SKNO-1 cytotoxicity in whole blood, donor 27067, 24 hour [1]: 0.912 nM | EC50, SKNO-1 cytotoxicity in whole blood, donor 27067, 48 hour [1]: 0.647 nM | EC50, SKNO-1 cytotoxicity in whole blood, donor 32771, 24 hour [1]: 1.68 nM | EC50, SKNO-1 cytotoxicity in whole blood, donor 32782, 48 hour [1]: 1.62 nM | binding result [2]: no binding (tested: 100 µg/mL) | EC50 (read off the curve) [3]: ~1 µg/mL | IC50 (read off the curve) (human FcRn): ~200 nM | binding result (human FcγRIIb): binds
